The target of the test is Polθ helicase domain (amino acids 1–894), O75417. Description: SEC; calibrated size exclusion chromatography of purified Polθ-h. To be noted: remark: other sources report otherwise. (SEC sorts molecules by how far they enter the pores of the column.)

Among the data in publication PMC9023281 are stoichiometry N values, retold here.

B1: Polθ helicase domain (amino acids 1–894), O75417 1-894 (domain or fragment)
chain: MNLLRRSGKRRRSESGSDSFSGSGGDSSASPQFLSGSVLSPPPGLGRCLKAAAAGECKPTVPDYERDKLLLANWGLPKAVLEKYHSFGVKKMFEWQAECLLLGQVLEGKNLVYSAPTSAGKTLVAELLILKRVLEMRKKALFILPFVSVAKEKKYYLQSLFQEVGIKVDGYMGSTSPSRHFSSLDIAVCTIERANGLINRLIEENKMDLLGMVVVDELHMLGDSHRGYLLELLLTKICYITRKSASCQADLASSLSNAVQIVGMSATLPNLELVASWLNAELYHTDFRPVPLLESVKVGNSIYDSSMKLVREFEPMLQVKGDEDHVVSLCYETICDNHSVLLFCPSKKWCEKLADIIAREFYNLHHQAEGLVKPSECPPVILEQKELLEVMDQLRRLPSGLDSVLQKTVPWGVAFHHAGLTFEERDIIEGAFRQGLIRVLAATSTLSSGVNLPARRVIIRTPIFGGRPLDILTYKQMVGRAGRKGVDTVGESILICKNSEKSKGIALLQGSLKPVRSCLQRREGEEVTGSMIRAILEIIVGGVASTSQDMHTYAACTFLAASMKEGKQGIQRNQESVQLGAIEACVMWLLENEFIQSTEASDGTEGKVYHPTHLGSATLSSSLSPADTLDIFADLQRAMKGFVLENDLHILYLVTPMFEDWTTIDWYRFFCLWEKLPTSMKRVAELVGVEEGFLARCVKGKVVARTERQHRQMAIHKRFFTSLVLLDLISEVPLREINQKYGCNRGQIQSLQQSAAVYAGMITVFSNRLGWHNMELLLSQFQKRLTFGIQRELCDLVRVSLLNAQRARVLYASGFHTVADLARANIVEVEVILKNAVPFKSARKAVDEEEEAVEERRNMRTIWVTGRKGLTEREAAALIVEEARMILQQDLVEM
Usually stoichiometry N stands for the number of molecules, sites or subunits per partner or assembly. For B1, the stoichiometry N amounted to 4.
